Laboratory results taken from patent US5731185.

Test system: HphI restriction endonuclease (Haemophilus parahaemolyticus)
Experiment: cleavage_in_vitro
Settings: crude extract cleaves lambda DNA; pAGR3-Rg1 clones in ER2252 about 750 units/g

Substance lambda DNA has an activity (units/g cells) of 5000.
